Consider two molecules from PMC10752894, “Structural basis for DNA proofreading” (Nature Communications, 2023).

Data set [1] deals with Polγ holoenzyme, cryo-EM Complex ONE (Homo sapiens, UniProt P54098;Q9UHN1 26-1239;26-485). In words: cryo-EM; Complex ONE class 1; EMSA: 40 mM Tris-HCl pH 7.9, 60 mM NaCl, 10 mM MgCl2, 5% glycerol, 20 mM 2-mercaptoethanol, 0.1 mg/ml BSA, 150 nM Cy3 scaffold, 10 min room temperature; 0.5% agarose, 0.5X TBE, 4 °C. The settings on record: protein: recombinant; tags: N-terminal His (both subunits); copies: 1;2; primer-template, 6 nt 5' template overhang, 3'-terminal A mismatched with G. A general note: In EMSA bound probe runs differently from free probe, usually more slowly.

Data set [2] concerns the molecule itself. The data set is described as follows: cryo-EM structure; Complex ONE: 2 μM WT Polγ holoenzyme with the DNA20*A/DNA20_TS scaffold (phosphorothioate mismatched primer), 10 mM Tris-HCl pH 7.9, 100 mM NaCl, 10 mM DTT, 2 mM MgCl2. Complex THREE: the same with the hydrolyzable DNA20A primer. Gives Structures I, II, VII, VIII, IX.

Polγ holoenzyme, cryo-EM Complex ONE, sequence (P54098 26-1239, one chain of several): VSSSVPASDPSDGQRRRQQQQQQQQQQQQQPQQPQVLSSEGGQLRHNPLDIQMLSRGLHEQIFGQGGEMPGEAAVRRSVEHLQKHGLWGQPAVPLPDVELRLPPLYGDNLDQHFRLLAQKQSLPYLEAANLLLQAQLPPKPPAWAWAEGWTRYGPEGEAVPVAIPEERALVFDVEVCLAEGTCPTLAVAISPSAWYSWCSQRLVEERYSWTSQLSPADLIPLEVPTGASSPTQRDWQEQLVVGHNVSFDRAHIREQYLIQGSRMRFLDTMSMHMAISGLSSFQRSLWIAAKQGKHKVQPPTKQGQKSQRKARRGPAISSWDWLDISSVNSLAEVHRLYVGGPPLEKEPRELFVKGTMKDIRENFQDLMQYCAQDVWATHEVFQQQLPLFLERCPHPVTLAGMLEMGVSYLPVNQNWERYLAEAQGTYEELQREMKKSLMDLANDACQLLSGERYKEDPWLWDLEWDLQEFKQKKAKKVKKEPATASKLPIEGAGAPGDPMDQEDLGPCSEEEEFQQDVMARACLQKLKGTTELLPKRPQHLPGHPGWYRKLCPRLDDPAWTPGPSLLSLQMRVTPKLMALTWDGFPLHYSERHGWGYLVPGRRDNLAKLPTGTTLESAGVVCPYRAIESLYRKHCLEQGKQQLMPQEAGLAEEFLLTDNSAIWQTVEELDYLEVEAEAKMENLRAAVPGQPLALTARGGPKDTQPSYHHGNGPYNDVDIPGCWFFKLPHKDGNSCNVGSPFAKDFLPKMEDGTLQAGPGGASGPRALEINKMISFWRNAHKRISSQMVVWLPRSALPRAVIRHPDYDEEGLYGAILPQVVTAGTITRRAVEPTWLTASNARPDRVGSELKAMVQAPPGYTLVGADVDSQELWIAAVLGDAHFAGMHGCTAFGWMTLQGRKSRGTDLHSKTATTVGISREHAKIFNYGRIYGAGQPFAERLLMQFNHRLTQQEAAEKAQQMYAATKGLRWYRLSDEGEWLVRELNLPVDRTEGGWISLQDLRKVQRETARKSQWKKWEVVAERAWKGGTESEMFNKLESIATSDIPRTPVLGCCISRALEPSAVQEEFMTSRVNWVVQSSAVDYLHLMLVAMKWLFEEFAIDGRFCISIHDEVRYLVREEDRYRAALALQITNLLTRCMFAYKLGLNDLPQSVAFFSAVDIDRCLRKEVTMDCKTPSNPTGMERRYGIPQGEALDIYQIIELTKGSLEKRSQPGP

B1: DNA20sA/DNA20TS (Complex ONE) (dsDNA)
DNA 1: GAAGACAGTCTGCGGCGCGA
DNA 2: ACACACGCGCGCCGCAGACTGTCTTC
modifications: phosphorothioate before the 3'-terminal A of the primer (racemic)
For B1, the binding result in data set [1] is given as “binds”.

B2: human mitochondrial DNA polymerase Gamma accessory subunit Polγ_B (residues 26–485) (natural protein, UniProt Q9UHN1 26-485, looked up)
chain: DAGQPELLTERSSPKGGHVKSHAELEGNGEHPEAPGSGEGSEALLEICQRRHFLSGSKQQLSRDSLLSGCHPGFGPLGVELRKNLAAEWWTSVVVFREQVFPVDALHHKPGPLLPGDSAFRLVSAETLREILQDKELSKEQLVAFLENVLKTSGKLRENLLHGALEHYVNCLDLVNKRLPYGLAQIGVCFHPVFDTKQIRNGVKSIGEKTEASLVWFTPPRTSNQWLDFWLRHRLQWWRKFAMSPSNFSSSDCQDEEGRKGNKLYYNFPWGKELIETLWNLGDHELLHMYPGNVSKLHGRDGRKNVVPCVLSVNGDLDRGMLAYLYDSFQLTENSFTRKKNLHRKVLKLHPCLAPIKVALDVGRGPTLELRQVCQGLFNELLENGISVWPGYLETMQSSLEQLYSKYDEMSILFTVLVTETTLENGLIHLRSRDTTMKEMMHISKLKDFLIKYISSAKNV
notes: human DNA polymerase gamma accessory subunit Polγ_B, residues 26-485; It is a homodimer in the holoenzyme, with a proximal copy Polγ_B1 and a distal copy Polγ_B2; also called Polγ_B homodimer; Polγ_B1; source: E. coli BL21-CodonPlus (DE3)-RIPL, purified (Ni-NTA, HiTrap heparin)
Take B2: the binding result in data set [2] is recorded as “binds”.
